Source: publication PMC5241739, “Structure of the Toll/Interleukin-1 Receptor (TIR) Domain of the B-cell Adaptor That Links Phosphoinositide Metabolism with the Negative Regulation of the Toll-like Receptor (TLR) Signalosome*^([image sbox.jpg])” (The Journal of Biological Chemistry, 2016)

B1: BCAP330, the first 330 residues of BCAPL (domain or fragment, human, UniProt Q6ZUJ8-1 1-330, looked up)
chain: MAASGVPRGCDILIVYSPDAEEWCQYLQTLFLSSRQVRSQKILTHRLGPEASFSAEDLSLFLSTRCVVVLLSAELVQHFHKPALLPLLQRAFHPPHRVVRLLCGVRDSEEFLDFFPDWAHWQELTCDDEPETYVAAVKKAISEDSGCDSVTDTEPEDEKVVSYSKQQNLPTVTSPGNLMVVQPDRIRCGAETTVYVIVRCKLDDRVATEAEFSPEDSPSVRMEAKVENEYTISVKAPNLSSGNVSLKIYSGDLVVCETVISYYTDMEEIGNLLSNAANPVEFMCQAFKIVPYNTETLDKLLTESLKNNIPASGLHLFGINQLEEEDMMTN
notes: B-cell adaptor for phosphoinositide 3-kinase (BCAP), human, the N-terminal 330 residues (TIR and DBB domains); also called N-terminal variant; source: cloned into pMCSG7, purified (StrepTrap, S200 size exclusion)
B2: BCAPS, splice variant of BCAP (natural protein, human, UniProt Q6ZUJ8-2 1-627, looked up)
chain: MVVQPDRIRCGAETTVYVIVRCKLDDRVATEAEFSPEDSPSVRMEAKVENEYTISVKAPNLSSGNVSLKIYSGDLVVCETVISYYTDMEEIGNLLSNAANPVEFMCQAFKIVPYNTETLDKLLTESLKNNIPASGLHLFGINQLEEEDMMTNQRDEELPTLLHFAAKYGLKNLTALLLTCPGALQAYSVANKHGHYPNTIAEKHGFRDLRQFIDEYVETVDMLKSHIKEELMHGEEADAVYESMAHLSTDLLMKCSLNPGCDEDLYESMAAFVPAATEDLYVEMLQASTSNPIPGDGFSRATKDSMIRKFLEGNSMGMTNLERDQCHLGQEEDVYHTVDDDEAFSVDLASRPPVPVPRPETTAPGAHQLPDNEPYIFKVFAEKSQERPGNFYVSSESIRKGPPVRPWRDRPQSSIYDPFAGMKTPGQRQLITLQEQVKLGIVNVDEAVLHFKEWQLNQKKRSESFRFQQENLKRLRDSITRRQREKQKSGKQTDLEITVPIRHSQHLPAKVEFGVYESGPRKSVIPPRTELRRGDWKTDSTSSTASSTSNRSSTRSLLSVSSGMEGDNEDNEVPEVTRSRSPGPPQVDGTPTMSLERPPRVPPRAASQRPPTRETFHPPPPVPPRGR
notes: The first residue is worked out from the legend's words 'lacks the first 180 amino acids'; source: cloned into pMCSG7, purified (StrepTrap, S200 size exclusion)
B3: Full-length BCAP, BCAPL (1–805) (natural protein, human, UniProt Q6ZUJ8-1 1-805, looked up)
chain: MAASGVPRGCDILIVYSPDAEEWCQYLQTLFLSSRQVRSQKILTHRLGPEASFSAEDLSLFLSTRCVVVLLSAELVQHFHKPALLPLLQRAFHPPHRVVRLLCGVRDSEEFLDFFPDWAHWQELTCDDEPETYVAAVKKAISEDSGCDSVTDTEPEDEKVVSYSKQQNLPTVTSPGNLMVVQPDRIRCGAETTVYVIVRCKLDDRVATEAEFSPEDSPSVRMEAKVENEYTISVKAPNLSSGNVSLKIYSGDLVVCETVISYYTDMEEIGNLLSNAANPVEFMCQAFKIVPYNTETLDKLLTESLKNNIPASGLHLFGINQLEEEDMMTNQRDEELPTLLHFAAKYGLKNLTALLLTCPGALQAYSVANKHGHYPNTIAEKHGFRDLRQFIDEYVETVDMLKSHIKEELMHGEEADAVYESMAHLSTDLLMKCSLNPGCDEDLYESMAAFVPAATEDLYVEMLQASTSNPIPGDGFSRATKDSMIRKFLEGNSMGMTNLERDQCHLGQEEDVYHTVDDDEAFSVDLASRPPVPVPRPETTAPGAHQLPDNEPYIFKVFAEKSQERPGNFYVSSESIRKGPPVRPWRDRPQSSIYDPFAGMKTPGQRQLITLQEQVKLGIVNVDEAVLHFKEWQLNQKKRSESFRFQQENLKRLRDSITRRQREKQKSGKQTDLEITVPIRHSQHLPAKVEFGVYESGPRKSVIPPRTELRRGDWKTDSTSSTASSTSNRSSTRSLLSVSSGMEGDNEDNEVPEVTRSRSPGPPQVDGTPTMSLERPPRVPPRAASQRPPTRETFHPPPPVPPRGR
notes: B-cell adaptor for phosphoinositide 3-kinase (BCAP), human, full-length form BCAPL, residues 1-805; Cloned into the same vector as the His6-tagged TIR domain; source: cloned into pMCSG7, purified (StrepTrap, S200 size exclusion)

Biological target: the molecule itself
Test: AUC; sedimentation velocity, Beckman XL-A, 0.3 to 1 mg/ml, 30,000–40,000 rpm, c(S) and c(M) analysis with SEDFIT

Stoichiometry N, 2:
B1
B2
B3
